This assay concerns the target Unmodified H3 (15–39) (Homo sapiens, matured GFP-type chromophore; AG itself is the assayed negative control. Accession is from memory; wild-type AG assumed rather than the monomeric version). As to the kind of experiment: ITC.

As a reminder, the Kd is the free concentration of one partner at which half of the binding sites on the other are occupied at equilibrium, for simple one-to-one binding.

B1: Azami-Green (AG) protein alone (natural protein)
chain: MSVIKPEMKIKLCMRGTVNGHNFVIEGEGKGNPYEGTQILDLNVTEGAPLPFAYDILTTVFQYGNRAFTKYPADIQDYFKQTFPEGYHWERSMTYEDQGICTATSNISMRGDCFFYDIRFDGVNFPPNGPVMQKKTLKWEPSTEKMYVRDGVLKGDVNMALLLEGGGHYRCDFKTTYKAKKDVRLPDYHFVDHRIEILKHDKDYNKVKLYENAVARYSMLPSQAK
For B1, the Kd was above 1000 µM.

These data come from publication PMC9293779 (2022).
